Test results taken from patent US20260241049A1, “Radiopharmaceutical Compositions Targeting Glypican-3 and Uses Thereof” (RayzeBio, Inc., priority 2023, published 2026).
Starred links: 1 amine or outer side, 2 acyl side, 3 side chain; linkers in the order of their positions; H or OH if unused. Positions of bridges follow the written chain, without caps; N, C: chain ends. Non-standard residues stand in square brackets, D forms with d. Primed or numbered codes have the meaning given here. *: point of attachment. F4amCOpipzaa = 2-amino-3-(4-((4-(carboxymethyl)piperazine-1-carboxamido)methyl)phenyl)propanoic acid, O=C(NCc1ccc(C[C@H](N[*:1])C(=O)[*:2])cc1)N1CCN(CC(=O)[*:3])CC1; F4aaopipzaa = 2-amino-3-(4-(2-(4-(carboxymethyl)piperazin-1-yl)-2-oxoethoxy)phenyl)propanoic acid, O=C(COc1ccc(C[C@H](N[*:1])C(=O)[*:2])cc1)N1CCN(CC(=O)[*:3])CC1; DOTA‑Lu = DOTA-lutetium(175) amide on the side-chain amine, O=C([O-])CN1CCN(CC(=O)[O-])CCN(CC(=O)*)CCN(CC(=O)[O-])CC1.[175Lu+3]; Thr(Me) = O-methyl threonine, (3R)-2-amino-3-methoxybutanoic acid, CO[C@H](C)[C@H](N[*:1])C(=O)[*:2]; F4aao = 4-(carboxymethoxy)-L-phenylalanine, O=C([C@H](Cc1ccc(OCC(=O)[*:3])cc1)N[*:1])[*:2]; MeHseMe(6) = (2S)-4-methoxy-2-(methylamino)butanoic acid, COCC[C@@H](C(=O)[*:2])N(C)[*:1]; MeHseMe = N-methyl-O-methyl-L-homoserine, COCC[C@@H](C(=O)[*:2])N(C)[*:1]; Thr(Me)(3) = TMe, O-methyl-L-threonine, CO[C@H](C)[C@H](N[*:1])C(=O)[*:2]; DOTA‑Lu(3) = DOTA chelate with cold lutetium-175, amide-linked; TMe = O-methyl-L-threonine, CO[C@H](C)[C@H](N[*:1])C(=O)[*:2]; NMeAla(isoquinolin-7-yl) = CN[C@@H](Cc1ccc2ccncc2c1)C(=O)O; Phe(4-NHCONH2) = NC(=O)Nc1ccc(C[C@H](N)C(=O)O)cc1; 3Pal(6-Ph) = N[C@@H](Cc1ccc(-c2ccccc2)nc1)C(=O)O; Phe(4-COOH) = N[C@@H](Cc1ccc(C(=O)O)cc1)C(=O)O; NMe2Nal = CN[C@@H](Cc1ccc2ccccc2c1)C(=O)O; NMeI = CC[C@H](C)[C@H](NC)C(=O)O; NMeQ = CN[C@@H](CCC(N)=O)C(=O)O; NMeK = CN[C@@H](CCCCN)C(=O)O; NMeC = CN[C@@H](CS)C(=O)O

Each binder was assayed against T1, Human Glypican3-Fc (ACRO Biosystems, GP3-H5258) (human, UniProt P51654 25-559) (assay: SPR (Biacore T200), Method B-2: human Glypican3-Fc captured by anti-human Fc on CM3 chip, peptide as analyte).
T1 construct: Bought fusion protein, captured in Methods B-2, B-3 and B-4; Catalogue number is printed only in Method B-2; not shown: Fc part of the bought fusion
Experimental: A CM3 sensor chip (Cytiva) was inserted into a Biacore T200 (Cytiva), primed three times with a running buffer: HBS-P-+, pH 7.4 (Cytiva), and equilibrated at a flow rate of 30 μL/min. Using the Anti-Fc Capture Kit (Cytiva), 50 LL each of 60 mM EDC solution (Cytiva) and 650 mM NHS solution (Cytiva) were mixed, and then reacted at a flow rate of 10 μL/min for 420 seconds, 150 μL of […] Anti-human IgG (Fc) Antibody solution was prepared by diluting with 10 mM acetic acid solution (pH 5.0), reacted at a flow rate of 10 μL/min for 420 seconds, and immobilized on a CM3 sensor chip. After immobilization, 1.0 M ethanolamine aqueous solution (Cytiva) was allowed to react for 420 seconds at a flow rate of 10 μL/min for capping. Human Glypican3-Fc (ACRO Biosystems, GP3-H5258) was allowed to react for 60 seconds at a flow rate of 10 μL/min. After capturing human Glypican3-Fc, a peptide solution prepared to 10 mM in DMSO solution was diluted with a running buffer to a final concentration of 10 μM. […] Using the above samples, peptide kinetics for Glypican3 was obtained by SPR measurement. Kinetics evaluation of Glypican3 was performed by SPR measurements at a flow rate of 10 μL/min. setting the association time to 120 seconds and the disassociation time to 600 seconds.
The obtained data by Method B-1, Method B-2, Method B-3 and Method B-4 were analyzed by follow. Single Cycle Kinetics was used as the kinetics evaluation model, and curve fitting was performed using Biacore T200 Evaluation Software Version 3.0 (Cytiva).

Row | Binder | Kd [nM]
1 | {CH2CO}-[NMeQ][MeHseMe]D[NMeQ][Phe(4-COOH)][Thr(Me)]I[F4amCOpipzaa][NMe2Nal]G[3Pal(6-Ph)][NMeC]-NH2 (thioether N-12; SMILES CC[C@H](C)[C@@H]1NC(=O)[C@H]([C@@H](C)OC)NC(=O)[C@H](Cc2ccc(C(=O)O)cc2)NC(=O)[C@H](CCC(N)=O)N(C)C(=O)[C@H](CC(=O)O)NC(=O)[C@H](CCOC)N(C)C(=O)[C@H](CCC(N)=O)N(C)C(=O)CSC[C@@H](C(N)=O)N(C)C(=O)[C@H](Cc2ccc(-c3ccccc3)nc2)NC(=O)CNC(=O)[C@H](Cc2ccc3ccccc3c2)N(C)C(=O)[C@H](Cc2ccc(CNC(=O)N3CCN(CC(=O)O)CC3)cc2)NC1=O) [Macrocyclic peptide of Example 2-20 (SEQ ID No. 38)] | 0.7
2 | {CH2CO}-[NMeQ][MeHseMe]D[NMeQ][Phe(4-COOH)][Thr(Me)(3)]I[F4aaopipzaa][NMe2Nal]G[3Pal(6-Ph)][NMeC]-NH2 (thioether N-12; SMILES CC[C@H](C)[C@@H]1NC(=O)[C@H]([C@@H](C)OC)NC(=O)[C@H](Cc2ccc(C(=O)O)cc2)NC(=O)[C@H](CCC(N)=O)N(C)C(=O)[C@H](CC(=O)O)NC(=O)[C@H](CCOC)N(C)C(=O)[C@H](CCC(N)=O)N(C)C(=O)CSC[C@@H](C(N)=O)N(C)C(=O)[C@H](Cc2ccc(-c3ccccc3)nc2)NC(=O)CNC(=O)[C@H](Cc2ccc3ccccc3c2)N(C)C(=O)[C@H](Cc2ccc(OCC(=O)N3CCN(CC(=O)O)CC3)cc2)NC1=O) [Macrocyclic peptide of Example 2-22 (SEQ ID No. 40)] | 0.8
3 | {CH2CO}-K[NMeI]D[NMeQ][Phe(4-COOH)]II[F4aao][NMeAla(isoquinolin-7-yl)]G[3Pal(6-Ph)][NMeC]-NH2 (thioether N-12; not fully specified (residue 1); also: DOTA-Lu: cold Lu-175 complex) [Lu-C-42] | 0.67
4 | KQDQFTIFFGXC (not fully specified; MeK(DOTA-Lu)-MeQ-D-MeQ-F4COO-TMe-I-F4aao-MeNal27N-G-3Py6Ph-MeC-NH2; thioether ring from N-terminal acetyl to MeC12) [Lu-C-35] | 2.03
5 | Ac-[NMeK](DOTA‑Lu(3))[MeHseMe(6)]D[NMeQ][Phe(4-COOH)][TMe]IY[NMeAla(isoquinolin-7-yl)]G[3Pal(6-Ph)][NMeC]-NH2 (bridge N-12; not fully specified (bridges); also: cold Lu-175 chelated by DOTA) [Lu-C-45] | 0.74
6 | {CH2CO}-[NMeQ][MeHseMe]D[NMeQ][Phe(4-COOH)][Thr(Me)]I[Phe(4-NHCONH2)][NMe2Nal]G[3Pal(6-Ph)][NMeC]-NH2 (thioether N-12; SMILES CC[C@H](C)[C@@H]1NC(=O)[C@H]([C@@H](C)OC)NC(=O)[C@H](Cc2ccc(C(=O)O)cc2)NC(=O)[C@H](CCC(N)=O)N(C)C(=O)[C@H](CC(=O)O)NC(=O)[C@H](CCOC)N(C)C(=O)[C@H](CCC(N)=O)N(C)C(=O)CSC[C@@H](C(N)=O)N(C)C(=O)[C@H](Cc2ccc(-c3ccccc3)nc2)NC(=O)CNC(=O)[C@H](Cc2ccc3ccccc3c2)N(C)C(=O)[C@H](Cc2ccc(NC(N)=O)cc2)NC1=O) [Macrocyclic peptide of Example 2-21 (SEQ ID No. 39)] | 0.4
7 | Ac-[NMeK](DOTA‑Lu)[NMeI]D[NMeQ][Phe(4-COOH)][TMe]I[F4aao][NMeAla(isoquinolin-7-yl)]G[3Pal(6-Ph)][NMeC][dE]-NH2 (bridge N-12; not fully specified (bridges); printed as MeK(DOTA-Lu)-MeI-D-MeQ-F4COO-TMe-I-F4aao-MeNal27N-G-3Py6Ph-MeC-de-NH2) [Lu-C-31] | 7.05
